# From article PMC2661029
# Read-outs that look alike come from different tables or passages of the source.
# Experiments:
# Fas death domain [1] = target: Fas death domain (UniProt P25445)
# Fas death domain [2] = target: Fas death domain (UniProt P25445); assay: crystal structure
# [3] = target: FADD death domain, His6-tagged (UniProt Q13158); assay: pull-down
# Sequence of UniProt Q13158 (Q13158 93-191): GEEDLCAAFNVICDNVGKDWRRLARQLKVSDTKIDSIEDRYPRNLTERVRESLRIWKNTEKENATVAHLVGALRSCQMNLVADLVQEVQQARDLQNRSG
substance,measurement,setting,value
Fas death domain (from UniProt P25445 230-314) (domain or fragment),stoichiometry N,Fas death domain [1],4
same,stoichiometry N,Fas death domain [2],4
same,concentration at which the complex dissociates,[3],50 µM
